assay: soluble on expression in E. coli; label from the status in PepcDB or PDB records

Row | Sequence | soluble on expression in E. coli
1 | MGSDKIHHHHHHMSKPSPRHLWHVQPGSNVITHPLKQSHYLNVELMSLEIVAEYPRPPALVACSDHVIVEALGTRICETHDCLRVLETFHPPTYYLPPKAMRKDLLIRSRRSSFCEWKGIANYWDLVIADKRLEGAIWSYPDPTPTFRALTGWYALYPGRMDHCSVNGETVIPQPGQFYGGWITSQVVGPFKGDPAHPQLI | not soluble
2 | MSKTFRVSKVTSGNSKAIQQTKPITILLMGVDTGSKGRKETWEGNSDTMILVTVNPKTKRTTMTSLERDLLADVEGSGEAKLNSAYAEGGADLAISTIQKVLDIDIDYYALINMHGMIDLVDAVGGIEVTNHFDFPISIAENEPEFQAKVEPGTHKINGEQALVYSRMRYDDPDGDYGRQKRQREVIQKIVAKLLKMDSIGSYKKILSAVSSNVQTSINLGDSTTLRGLMGYSEALKNIKSYQLAGSDAMINGGSYQVASTEDILKVQNRIKKEVGKKGVSESKLKTSLVLNDFGTSSYVSDDFVNSTGSYEAGPSEATGGGSVSTYYGGTTYGNSYTENTSNYVQDQATTAPTINYNGSGVTTYNLVPAAQLEHHHHHH | soluble
3 | MSLNTAMAINKPKKVNKVMNYKSCFDIIGPIMIGPSSSHTAGALAIGLAARKLFGGTPEKIVIKYYESFADTHKGHGTDFAIIGGILGLAADDANVTQSIELAEEQGIEIQFLEMSEESPVKHANTACVTLSDATHEIHLTGISVGGGTIEVKYIELDGFNVQLHGPLPILLVINQEEQAMQAFKDTLQKNNIQVNAVSRYVEGNQILFIFDLDSAPISSVKEQLFSLDDTSKIILLEGGSHHHHHH | soluble
4 | MVLPLSLLKTAQNHPMLVELKNGETYNGHLKACDSWMNIHLVDVIFTSKDGDKFFKMSEAYVRGSTIKYLRIPETVVDLVKTEVNEVRRQQQREQSRGRGGGRGGRGGHRGGGGNRGGRGGAR | not soluble
5 | MKLLQKQQQQGGGDNQDQNKENNHDKKQPQNNPNNNNQGGQQQPQPSKQDNTQKDQQPRQNEMSRESAEKILKAYEQDEEKTREKVEQMRKQRMKQQKGNSTKQW | not soluble
6 | TCPAACHCPLEAPKCAPGVGLVRDGCGCCKVCAKQLNEDCSKTQPCDHTKGLECNFGASSTALKGICRAQSEGRPCEYNSRIYQNGESFQPNCKHQCTCIDGAVGCIPLCPQELSLPNLGCPNPRLVKVTGQCCEEWVCDEDSIKDPMEDQDGLLGKELGFDASEVELTRNNELIAVGKGSSLKRLPVFGMEPRILYNPLQGQKCIVQTTSWSQCSKTCGTGISTRVTNDNPECRLVKETRICEVRPCGQPVYSSLKKGKKCSKTKKSPEPVRFTYAGCLSVKKYRPKYCGSCVDGRCCTPQLTRTVKMRFRCEDGETFSKNVMMIQSCKCNYNCPHANEAAFPFYRLFNDIHKFRD | soluble
7 | MGSDKIHHHHHHMKRARIIYNPTSGREIFKKHLAQVLQKFEQAGYETSTHATTCAGDATHAAKEAALREFDLIIAAGGDGTINEVVNGLAPLDNRPTLGVIPVGTTNDFARALGIPREDILKAADTVINGVARPIDIGQVNGQYFINIAGGGRLTELTYDVPSKLKTMLGQLAYYLKGMEMLPSLRPTEVEIEYDGKLFQGEIMLFLVTLTNSVGGFEKLAPDSSLNDGMFDLMILKKANLAEFIRVATMALRGEHINDQHIIYTKANRVKVNVSEKMQLNLDGEYGGMLPGEFVNLYRHIHVVMPKEKAEQLDD | not soluble
8 | MAHHHHHHMMKEETLNSDNSSAEVSVESPSFSFNCAHFIAYNGFRETLHGHNYNVSLKVRGYVRDDGYVIDFSILKEKVKKVCNKLDHHFILPIYSDVLKFENVKNNIKIICEDNSEYSFPERDCIKLPIKHSSTEEIGQYILNQLIEEMDVSLLKSRHIHYIEISVSESPTQKAIVHKYI | soluble
9 | MAHHHHHHMLCTFTTLHERIRILTDAHQLILPEELEAEFPDEAQLIKSMLAANPLQRPQIRKFLRQINKLIVALEAQESDEEAEKPPPPSPLDGTEHSESRNGNDEAATAALVDDSASALATATATSKLGNTPLSTSVAAASSSRGRPVAADLASGGHADSFSDVQDSFSSPLGEQKSRVALLPVFHSEAATGTSVAATSPMAATTSVHDTNAASAGKHVTRRGDSLASLHASTMVKRGNTYHHRRRGSASPNMEAEIGRLHICEMVATGSASRQGFFANDPYGLPTTPVMYTEDADLSTILKRDLQDRTVSAPD | not soluble
10 | MSLTSVKEFPTIKAVRSFVIGGVGSGGDYHNVEGGHWLIDSPISTPCSRWEEYRKSRTSWGINVLGSFFVEIEASDGTVGYATGFGGPPACWLTHQHFERFLIGADPRRTNHLFEQMYRASMFYGRKGLPIAVISVIDLALWDLLGKIRKEPVYQMIGGATKDRLNFYCTGPEPTAAREMGFWGAKVPLPYCPDEGHVGMKKNIEFLRKHREAVGPDFPLMVDCYMSLNVSYTIELAEKCKDLDINWWEECLSPDDTDGFEQIKRAHPTLKFTTGEHEYSRFGFRKLVEGRNLDIIQPDVMWLGGLTELLRVSAMAAAYDIPVVPHASGPYSYHFVMSQPNTPFQEYLANSPDGKSVLPVFGDLFLDEIIPSKGFLTPKDLDQPGFGLTLNPAARAKMIPGEFWVNPAPLKALTSGAPAEEKKEGAVEAVVNKVQELTTSEGHHHHHH | soluble
11 | MGSDKIHHHHHHMTAANTQHVEHINECTLESVIDLIRDADKPMVFKGLCHHWPLVQAGLESAQSAMTYLRQFYQGMPVTAYYVPPEQHGRVFYNEQLDGFNYQAGRLDFNQLLDRLSQEMIKDMPAGMYMGSTDIHQCLPGLGAQNSLDLAPMQPLTSIWLGNQTKVAAHYDFPLNLACNVVGKRTFTLFPPEQISNLYVGPMELAPGGQDISLVDMANPDFERFPRFQHALDASLTAELSPGDVLFIPSMWWHHVRGVDDFNVLITHWWRDTPGFLGRPNNALLHSILSLRSLPKAQRQAWKSIFEHYIFDHDDVDDSHIPDNVKGMQTKPLDELTARKIRADLINKLKR | not soluble
12 | MNRIGFIGAGNMGTAMIRGLAQANLVKREEIIVGGRNLEKLKPLEAEFTGLQITTDTEKLVEQADIIILAVKPYTIPEILTSVKEKLTPDKIIISVAAGVTIQDLEELTSAKTKIVRVMPNTPALVGEAMSSVSPNTNVTSEELKEVTAIFTSFGEAEVVSENLMDAVIGVSGSSPAYVYMFIEALADGAVLSGMPRDKAYKFAAQAVLGAAKTVLETGEHPGKLKDMVTSPGGTTIEAVKSLENDGFRSAVINAVQAAAKKNSSMLEHHHHHH | soluble
13 | MRGSHHHHHHTDPALRAARLFTLSESKYYLMALDAGTGSIRAVIFDLEGNQIAVGQAEWRHLAVPDVPGSMEFDLNKNWQLACECMRQALHNAGIAPEYIAAVSACSMREGIVLYNNEGAPIWACANVDARAAREVSELKELHNNTFENEVYRATGQTLALSAIPRLLWLAHHRSDIYRQASTITMISDWLAYMLSGELAVDPSNAGTTGLLDLTTRDWKPALLDMAGLRADILSPVKETGTLLGVVSSQAAELCGLKAGTPVVVGGGDVQLGCLGLGVVRPAQTAVLGGTFWQQVVNLAAPVTDPEMNVRVNPHVIPGMVQAESISFFTGLTMRWFRDAFCAEEKLIAERLGIDTYTLLEEMASRVPPGSWGVMPIFSDRMRFKTWYHAAPSFINLSIDPDKCNKATLFRALEENAAIVSACNLQQIADFSNIHPSSLVFAGGGSKGKLWSQILADVSGLPVNIPVVKEATALGCAIAAGVGAGIFSSMAETGERLVRWERTHTPDPEKHELYQDSRDKWQAVYQDQLGLVDHGLTTSLWKAPGLGLCGR | soluble
14 | MGSDKIHHHHHHMNFPRPLVPATLVQRYKRFLFDAILADGTAITGSCPNTGSMRGLTIPGSPIWLSEHDSPTRKYRHMLEIVEADGTLVGINTGLPNRIAEEAIMAGQVGNLHTYGTLRREQRYGRNSRIDILLSDAEKGLAYVEVKNVHFSRVRGLAEFPDSPTQRGAKHLEELGDMVEAGHRAIMLYLIQRGDCSRFRICRELDPVYARAFERASARGVEAYAVKCAVSPGQIVAAGPIVVDEPVPAVL | not soluble
15 | MSLKKIANELGLSSTTVSRALNGYDDVAAETRERIIDAAKRLGYQPNSLARRLKMGRTDAIALAYPSRPRVLNNSTFLEMISWIGIELGKRGLDLLLIPDEPGEKYQSLIHLVETRRVDALIVAHTQPEDFRLQYLQKQNFPFLALGRSHLPKPYAWFDFDNHAGASLAVKRLLELGHQRIAFVSTDARISYVDQRLQGYVQTMSEAGLMPLAGYLQKADPTRPGGYLAASRLLALEVPPTAIITDCNMLGDGVASALDKAGLLGGEGISLIAYDGLPDDSLLDIAVTPIVQNTRTSVGKQIASMICDLLGGKDPKELQVLWQPEIGEGETEGHHHHHH | soluble
16 | MSLSEADTSNAKLADFFAKKGNEPLSEIEMEGVLALMQKSRGVADESSFLGNSSRLLGDISNANASQVLRTGNISTSSALNVPNFKPSTDESRNINAKEVENSTIVSTPLKRKNFDYSSIRSPYRTVIYRFDDSNKKKISSVFDKPESSSQEVDETPKPSNSKPLSNTASALVSLLSDKDAAKESIKPMANPYTSHLTALRKSREDLPSINDKITVPKRRQRSETEDKEEAKITSSNGEAQEDTNIPEGIASRKNEEAQDSFTKYKPMRSSSLRDSVSLAHTESNNEKQMNSPKFVPAPLDKNETKETAKSDLTLTSSDKQSESKPSFSFPVNSTTKSTFMGTKKESTSPAVNSQAVKNVSNNETKEIKPQVHECIYDFGNPTSSGFKKTDIDDTLVSKYRGQFVFEGHHHHHH | soluble
17 | MSGRSVRAETRSRAKDDIKKVMAATERVRRWEKKWVTVGDTSLRIFKWVPVTETKQIYKPKGAGPAVRELKGFPTDVVLENARSVLLDFQDDNSNQSFLSDAYQSNTKVDSSSNSSPQHVSEAVSPSHPPYYRTEDSQPPTLGQESMEAEREASTTSSEVTDEPPTLIKEDVLSLSTQEEEEAIGAPPLKRVCTEHNSTVS | not soluble
18 | SRENLGRIQFSVGYNFQESTLTVKIMKAQELPAKDFSGTSDPFVKIYLLPDKKHKLETKVKRKNLNPHWNETFLFEGFPYEKVVQRILYLQVLDYDRFSRNDPIGEVSIPLNKVDLTQMQTFWKDLKP | soluble
19 | MGIRVVFERPQGGERAVLVQLALPGVDADKALAEFEELALSAKAEVLDCVLGARATPDAKYYVGKGKAEEIAHLVNMLDADLVLVNHELSPSQERNLERLFGCRVVDRSGLILDIFAQRARTFEGKLQVELAQLQHLSTRLIRGWTHLERQKGGIGLRGPGETQLETDRRLLRERIRYINKRLEKVRCSRDQNRQARRKASMPTVSLVGYTNAGKSTLFNVLTGEHTYVADQLFATLDPTMRKLELPGSSAAILADTVGFIRDLPHHLVEAFRATLEETQQADLLLHVIDISDPNWRETVFEVQKVLDELKVNNIPVIQVFNKIDLQEGWQPKIDYTEDSCKVWLSATTGAGLDLLKEAIATQLHGMILIEDIVIKPDQAKLRAQLYQLGAVLKESVDENGDWLMKIRITADQKRRLLSAAALEHHHHHH | not soluble
20 | MSHSQRGLNWFNALSADASEVTGLPASLKVADGLLGEQPVRFVAVIADTNNRFPRARQGEVGLLEGWGLAKAVDDAIEQDRERAEKRALIAIVDVPSQAYGRREEALGIHQALAGAVDSYARARLAGHPVIGLLVGKAMSGAFLAHGYQANRLIALRDPGVMVHAMGKASAARVTQRSVDDLEKLAASIAPMAYDIDSYASLGLLWETLSVSQIEQPAVDDLTQVRQVLSSAIKDVQASGVDLSSRLGASNRKASAHVRQLLRAQW | not soluble
21 | MGSDKIHHHHHHHKKTFDYIFNKTEAITLEQSKLTLSKDITVLSFSDSSMVDRNSSIIKVDSGWIVYSKNSESSILSFTSDGQFSGYIGHRGNGPGEYTSVYDVVVNQKSKVLEVLSDGGIFCYTFGGDFLDKKEVTYPAFSFAIDDRQNYWFYVGNNTTYGDAKMICTDENIANVAYYLHQKSNMLPMVENNFGRNGEWLTFHESLNHDLYTIENGKLDLSYAMDFPNYKLPKKLHELSGMEVIEELQRSNYASIINYLENHDYIFLNVLLNNEGERIPEVYYWIISKNLQEEVIIKIDGGISAESYLFNTQYLSNDNKLYCLGYIWENKDVESFEENLNPSVVALEFNELFSKVR | not soluble

From the DeepSol protein solubility set
